Values belong to the binder of their own block, whether it stands above or below them. Bridges are numbered along the chain shown (N, C = ends). [ ]: non-standard residue; d: D form.
How the values were obtained:
Experiment in all cases: cell-based or functional assay
[1] = molecular target: Coagulation Factor Xa, from human plasma (human, UniProt P00742 41-488, limits assumed)
[2] = molecular target: Thrombin, from Human Plasma, high activity (human, UniProt P00734 328-622)
[3] = molecular target: Chymotrypsin, from human pancreas (human, UniProt P17538 19-263)
Chymotrypsin, from human pancreas, sequence (P17538 19-263): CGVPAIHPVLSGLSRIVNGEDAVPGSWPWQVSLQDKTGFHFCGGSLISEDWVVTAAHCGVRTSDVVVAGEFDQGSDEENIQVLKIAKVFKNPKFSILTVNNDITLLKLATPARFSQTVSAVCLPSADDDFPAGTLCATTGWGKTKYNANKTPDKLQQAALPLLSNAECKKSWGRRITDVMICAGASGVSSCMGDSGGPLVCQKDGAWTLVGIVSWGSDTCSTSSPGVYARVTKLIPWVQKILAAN

[4] = molecular target: Trypsin, Iodination grade, from human pancreas (human, UniProt P07477 24-247)
[5] = molecular target: T1, CathepsinG, from human neutrophils (human, UniProt P08311 21-244)
T1 sequence (looked up): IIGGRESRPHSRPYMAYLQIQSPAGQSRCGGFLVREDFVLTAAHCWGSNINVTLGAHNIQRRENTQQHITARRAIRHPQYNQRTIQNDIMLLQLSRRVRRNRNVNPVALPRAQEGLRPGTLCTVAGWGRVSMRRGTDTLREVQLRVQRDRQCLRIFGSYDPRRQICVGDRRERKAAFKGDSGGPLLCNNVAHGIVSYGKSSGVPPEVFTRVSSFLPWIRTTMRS

[6] = molecular target: Urokinase from human urine (human, UniProt P00749 21-431, limits assumed)
[7] = molecular target: T2, Elastase from human neutrophils (human, UniProt P08246 30-247, limits assumed)
T2 sequence (looked up): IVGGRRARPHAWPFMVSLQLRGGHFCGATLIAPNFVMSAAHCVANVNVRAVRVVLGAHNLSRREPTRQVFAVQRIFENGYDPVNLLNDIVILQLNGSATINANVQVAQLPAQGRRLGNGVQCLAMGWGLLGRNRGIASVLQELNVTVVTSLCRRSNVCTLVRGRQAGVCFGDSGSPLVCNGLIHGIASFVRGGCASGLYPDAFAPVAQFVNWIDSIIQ

[8] = molecular target: T3, Chymase, from human skin (human, UniProt P23946 22-247)
T3 sequence (looked up): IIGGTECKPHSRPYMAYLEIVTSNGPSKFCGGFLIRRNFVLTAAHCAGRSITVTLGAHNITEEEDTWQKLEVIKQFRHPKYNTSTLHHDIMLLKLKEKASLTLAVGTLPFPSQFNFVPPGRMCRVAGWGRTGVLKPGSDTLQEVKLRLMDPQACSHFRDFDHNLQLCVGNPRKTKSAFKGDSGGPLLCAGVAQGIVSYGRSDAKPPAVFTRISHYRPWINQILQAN

[9] = molecular target: Tryptase, from human lung (human, UniProt Q15661 31-275, limits assumed)
Tryptase, from human lung, sequence (Q15661 31-275 limits assumed): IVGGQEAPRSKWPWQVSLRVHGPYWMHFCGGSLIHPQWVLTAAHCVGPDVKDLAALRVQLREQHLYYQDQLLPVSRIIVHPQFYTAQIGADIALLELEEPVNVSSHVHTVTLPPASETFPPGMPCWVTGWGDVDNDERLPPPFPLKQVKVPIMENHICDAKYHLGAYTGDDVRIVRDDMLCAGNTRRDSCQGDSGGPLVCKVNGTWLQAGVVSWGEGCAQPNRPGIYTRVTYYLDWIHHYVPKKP

Coagulation Factor Xa, from human plasma, sequence (P00742 41-488 limits assumed): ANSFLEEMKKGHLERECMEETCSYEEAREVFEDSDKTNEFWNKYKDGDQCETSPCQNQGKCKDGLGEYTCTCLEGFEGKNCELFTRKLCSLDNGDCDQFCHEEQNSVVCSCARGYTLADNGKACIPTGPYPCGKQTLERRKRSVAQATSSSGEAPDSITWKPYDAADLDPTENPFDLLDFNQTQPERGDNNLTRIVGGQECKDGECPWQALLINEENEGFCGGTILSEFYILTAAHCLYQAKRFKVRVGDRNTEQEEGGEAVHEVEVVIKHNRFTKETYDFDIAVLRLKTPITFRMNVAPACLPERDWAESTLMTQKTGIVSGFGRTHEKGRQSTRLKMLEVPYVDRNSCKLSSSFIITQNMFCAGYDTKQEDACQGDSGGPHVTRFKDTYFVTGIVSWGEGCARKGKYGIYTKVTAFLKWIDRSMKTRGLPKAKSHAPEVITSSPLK

B1: Example 58 (peptide)
peptide: ICTKSDPPXCR
HELM: PEPTIDE1{I.C.T.K.S.D.P.P.[Cha].C.R.[dP].P}$PEPTIDE1,PEPTIDE1,2:R3-10:R3|PEPTIDE1,PEPTIDE1,1:R1-13:R2$$$V2.0
SMILES: CC[C@H](C)[C@@H]1NC(=O)[C@@H]2CCCN2C(=O)[C@H]2CCCN2C(=O)[C@H](CCCNC(=N)N)NC(=O)[C@@H]2CSSC[C@H](NC1=O)C(=O)N[C@@H]([C@@H](C)O)C(=O)N[C@@H](CCCCN)C(=O)N[C@@H](CO)C(=O)N[C@@H](CC(=O)O)C(=O)N1CCC[C@H]1C(=O)N1CCC[C@H]1C(=O)N[C@@H](CC1CCCCC1)C(=O)N2
% inhibition at 100 µM [1]: 25% | % inhibition at 100 µM [2]: 28% | % inhibition at 100 µM [3]: 0% | % inhibition at 100 µM [4]: 97% | IC50 [5]: 47.5 nmol | % inhibition at 100 µM [6]: 6.7% | IC50 [7]: > 100000 nmol | % inhibition at 100 µM [8]: 44.1%

Binder: cyclo(ICTKSDPAICR[dP]P) (disulfide 2-10) [Example 52]
% inhibition at 100 µM [1]: 6% | % inhibition at 100 µM [2]: 8.7% | % inhibition at 100 µM [3]: 0% | % inhibition at 100 µM [9]: 84.2% | IC50 [5]: 52 nmol | % inhibition at 100 µM [6]: 5.4% | IC50 [7]: > 100000 nmol | % inhibition at 100 µM [8]: 42.3%

Results, then the binder that gave them:

% inhibition at 100 µM [1]: 11% | % inhibition at 100 µM [2]: 0% | % inhibition at 100 µM [3]: 4% | % inhibition at 100 µM [4]: 90% | IC50 [5]: 38 nmol | % inhibition at 100 µM [6]: 9% | IC50 [7]: > 100000 nmol | % inhibition at 100 µM [8]: 60%
B2: Example 60 (peptide)
peptide: FCTXSDPPICY
HELM: PEPTIDE1{F.C.T.[Nle].S.D.P.P.I.C.Y.[dP].P}$PEPTIDE1,PEPTIDE1,2:R3-10:R3|PEPTIDE1,PEPTIDE1,1:R1-13:R2$$$V2.0
SMILES: CCCC[C@@H]1NC(=O)[C@H]([C@@H](C)O)NC(=O)[C@@H]2CSSC[C@H](NC(=O)[C@H]([C@@H](C)CC)NC(=O)[C@@H]3CCCN3C(=O)[C@@H]3CCCN3C(=O)[C@H](CC(=O)O)NC(=O)[C@H](CO)NC1=O)C(=O)N[C@@H](Cc1ccc(O)cc1)C(=O)N1CCC[C@@H]1C(=O)N1CCC[C@H]1C(=O)N[C@@H](Cc1ccccc1)C(=O)N2

% inhibition at 100 µM [1]: 13.3% | % inhibition at 100 µM [2]: 20.6% | % inhibition at 100 µM [9]: 4.2% | % inhibition at 100 µM [4]: 10.8% | IC50 [5]: 20200 nmol | % inhibition at 100 µM [6]: 10.4% | IC50 [7]: 18 nmol | % inhibition at 100 µM [8]: 0%
B3: Example 84 (peptide)
peptide: XCTASXPPQCY
HELM: PEPTIDE1{[Nle].C.T.A.S.[O=C([C@@H](N[*:1])C1CCCCC1)[*:2]].P.P.Q.C.Y.[dP].P}$PEPTIDE1,PEPTIDE1,2:R3-10:R3|PEPTIDE1,PEPTIDE1,1:R1-13:R2$$$V2.0
SMILES: CCCC[C@@H]1NC(=O)[C@@H]2CCCN2C(=O)[C@H]2CCCN2C(=O)[C@H](Cc2ccc(O)cc2)NC(=O)[C@@H]2CSSC[C@H](NC1=O)C(=O)N[C@@H]([C@@H](C)O)C(=O)N[C@@H](C)C(=O)N[C@@H](CO)C(=O)N[C@@H](C1CCCCC1)C(=O)N1CCC[C@H]1C(=O)N1CCC[C@H]1C(=O)N[C@@H](CCC(N)=O)C(=O)N2

% inhibition at 100 µM [1]: 15.3% | % inhibition at 100 µM [3]: 72.9% | % inhibition at 100 µM [9]: 44.5% | IC50 [7]: 18 nmol
B4: Example 82 (peptide)
peptide: XCTASXPPQCY
HELM: PEPTIDE1{[Nle].C.T.A.S.[Cha].P.P.Q.C.Y.[dP].P}$PEPTIDE1,PEPTIDE1,2:R3-10:R3|PEPTIDE1,PEPTIDE1,1:R1-13:R2$$$V2.0
SMILES: CCCC[C@@H]1NC(=O)[C@@H]2CCCN2C(=O)[C@H]2CCCN2C(=O)[C@H](Cc2ccc(O)cc2)NC(=O)[C@@H]2CSSC[C@H](NC1=O)C(=O)N[C@@H]([C@@H](C)O)C(=O)N[C@@H](C)C(=O)N[C@@H](CO)C(=O)N[C@@H](CC1CCCCC1)C(=O)N1CCC[C@H]1C(=O)N1CCC[C@H]1C(=O)N[C@@H](CCC(N)=O)C(=O)N2
